The results in this text go back to paper PMC6783867.

The target in the experiment is 10th and 11th cadherin repeat domains of the Plutella xylostella cadherin (PxCR10–11), GST-tagged (Plutella xylostella). Nature of the experiment: BLI; Octet Red 96; GST-tagged PxCR10–11 loaded onto anti-GST biosensors; toxin 38.5 to 576.9 nM in solution; 400 s association, 400 s dissociation; 10 mM GSH, 50 mM Tris, pH 8.0; 1:1 binding model.

The substance “Cry2Ab–AVM bioconjugate (Cry2Ab30 conjugated with 4''-O-succinyl avermectin)” had an equilibrium dissociation constant (Kd) of 3.44 nM. As to “Cry2Ab–AVMd (Cry2Ab30 conjugated with 4'',5-O-succinyl avermectin)”, the Kd was found to be 71.9 nM.
